Measured values as given in paper doi:10.1101/2020.04.07.023903.

Molecular target: SARS-CoV-2 S glycoprotein, full length, expressed at the surface of ExpiCHO cells (SARS-CoV-2 (isolate BetaCoV/Wuhan-Hu-1/2019)) (UniProt P0DTC2)

| Substance | neutralization of SARS-CoV-2-MLV pseudovirus (transduction), IC50 [nM] | neutralization of SARS-CoV-2-MLV pseudovirus, plateau of neutralization [%] | neutralization of SARS-CoV-2-MLV pseudovirus, maximal neutralization [%] |
| --- | --- | --- | --- |
| S309 Fab fragment | 3.8 | 80 | – |
| S309 full-length IgG1 (rIgG-LS) (antibody) | 3.5 | – | 100 |
